Data: paper PMC10457348

Molecular target: nDARC(Y)-Fc: N-terminal 60 residues of human DARC (FyB) with tyrosine at position 41, fused to the Fc region of human IgG1 (human) (UniProt Q16570)
Assay: BLI; nDARC(Y)-Fc immobilised via its Fc on Anti-human IgG Fc Capture biosensors (20 ug/ml, 600 s); PvDBPII 1-120 nM; 25 C; PBS with 1 mg/ml BSA; reference biosensors with human IgG1 Fc subtracted; 1:2 binding model and steady-state analysis; mean of two experiments

Substance	Kd [nM]
Recombinant Plasmodium vivax Duffy Binding Protein region II, variant PvW1 (PvDBPII PvW1) (from UniProt P22290 211-525) (domain or fragment)	12
Recombinant Plasmodium vivax Duffy Binding Protein region II, variant Salvador I (PvDBPII SalI) (from UniProt P22290 211-525) (domain or fragment)	8.8
